The source of these data is publication PMC5862564.

One experiment addresses HaloTag-FYB (human) (UniProt O15117). Description: pull-down + split reporter (BiFC, NanoBiT); HaloTag-fused hook captured from HEK293T lysate on HaloLink resin, 6 washes with PBS 0.1% Tween; luminescence of the co-expressed GPCA pair on the resin; ratio of cells with the HaloTag vector to cells with the pCNeo vector expressing the same protein.
For experiment [1], the target named is FYB fused N-terminally to Gaussia princeps luciferase fragment 1, O15117-3. As to the kind of experiment: GPCA. To be noted: read off a plot.
Experiment [2] addresses SKAP2N1 (SKAP2 with Gaussia princeps luciferase fragment 1 at its N-terminal end) (UniProt O75563). Description: GPCA. To be noted: read off a plot.

Values joined by “and” are separate entries in the source; they are usually repeats but may differ in a detail not shown here. Equal values may be shown once.

FYB fused N-terminally to Gaussia princeps luciferase fragment 1, O15117-3, sequence (O15117 other isoform, or with tags, fused parts or gaps): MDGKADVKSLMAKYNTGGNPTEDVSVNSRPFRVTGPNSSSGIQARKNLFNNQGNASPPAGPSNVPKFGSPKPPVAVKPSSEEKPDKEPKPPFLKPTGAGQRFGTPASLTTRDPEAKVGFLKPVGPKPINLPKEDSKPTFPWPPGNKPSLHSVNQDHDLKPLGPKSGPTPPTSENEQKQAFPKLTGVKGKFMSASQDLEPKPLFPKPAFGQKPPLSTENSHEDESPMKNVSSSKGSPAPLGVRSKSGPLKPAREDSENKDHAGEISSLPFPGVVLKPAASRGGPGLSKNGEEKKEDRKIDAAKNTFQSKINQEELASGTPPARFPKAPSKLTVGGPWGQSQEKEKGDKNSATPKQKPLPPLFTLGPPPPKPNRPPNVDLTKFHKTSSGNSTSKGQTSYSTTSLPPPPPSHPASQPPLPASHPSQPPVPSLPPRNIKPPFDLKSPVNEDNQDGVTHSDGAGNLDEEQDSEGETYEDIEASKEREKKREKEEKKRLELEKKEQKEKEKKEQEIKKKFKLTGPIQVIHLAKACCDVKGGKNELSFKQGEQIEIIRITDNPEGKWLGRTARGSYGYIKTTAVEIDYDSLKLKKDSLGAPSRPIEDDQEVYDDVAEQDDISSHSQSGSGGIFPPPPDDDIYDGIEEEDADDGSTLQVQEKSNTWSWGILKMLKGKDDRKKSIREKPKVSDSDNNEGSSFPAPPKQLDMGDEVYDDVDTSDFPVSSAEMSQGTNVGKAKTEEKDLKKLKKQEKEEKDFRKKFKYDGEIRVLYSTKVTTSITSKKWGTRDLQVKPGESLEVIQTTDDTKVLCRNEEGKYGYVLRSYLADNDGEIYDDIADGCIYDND

With “SKAP2 homo-dimer of two hemi-luciferase-fused SKAP2 (the pair generating the luciferase signal) (from UniProt O75563 1-359) (complex)”, the luminescence ratio (HaloTag vector to pCNeo control) with HaloTag-FYB (human) was 49.1 and 135 and 51.8.

On to SKAP2 V24D; F27D; V28E, for which the response was 2000 NLR in experiment [1] (HCK-P249A 0 ng, with A23187, parent: est. 850); 1000 NLR in experiment [1] (HCK-P249A 0 ng, without A23187, parent: est. 280); 2500 NLR in experiment [1] (HCK-P249A 25 ng, with A23187, parent: est. 1000); 570 NLR in experiment [1] (HCK-P249A 25 ng, without A23187, parent: est. 190); 1900 NLR in experiment [1] (HCK-P249A 50 ng, with A23187, parent: est. 730); 1400 NLR in experiment [1] (HCK-P249A 50 ng, without A23187, parent: est. 540). Also, the response in experiment [1] (HCK-P249A 100 ng, with A23187, parent: est. 480) is 1300 NLR; in experiment [1] (HCK-P249A 100 ng, without A23187, parent: est. 570) it was 1500 NLR; in experiment [1] (with A23187, parent: est. 760), 1500 NLR; in experiment [1] (without A23187 (NT), parent: est. 390) it was 540 NLR; in experiment [2] (with A23187, parent: est. 320) it was 4.9 NLR; in experiment [2] (without A23187 (NT), parent: est. 240), 2.2 NLR.

In the case of “SKAP2-DIMPH hetero-dimer of hemi-luciferase-fused DIMPH and hemi-luciferase-fused SKAP2 (from UniProt O75563 1-222; O75563 1-359) (complex)”, the luminescence ratio (HaloTag vector to pCNeo control) with HaloTag-FYB (human) is 125 and 308 and 160.
